The values that follow come from IntAct's records for PubMed 23511974.

The chains are these.
B1: Centrosomal protein of 135 kDa (Homo sapiens), Q66GS9 (parent)
chain: MTTAVERKYINIRKRLDQLGYRQTLTVECLPLVEKLFSDLVHTTESLRQSKLSAVKAEKESANFDFVLEPYKLENARLSRENNELYLELMKLREHSDQHVKELKTSLKKCARETADLKFLNNQYAHKLKLLEKESKAKNERIQQLQEKNLHAVVQTPGGKKRSIAFRRQRMQIDEPVPPSEVSSYPVPQPDDPYIADLLQVADNRIQELQQEVHQLQEKLAMMESGVRDYSKQIELREREIERLSVALDGGRSPDVLSLESRNKTNEKLIAHLNIQVDFLQQANKDLEKRIRELMETKETVTSEVVNLSNKNEKLCQELTEIDQLAQQLERHKEEVLETADKELGEAKKEIKRKLSEMQDLEETMAKLQLELNLCQKEKERLSDELLVKSDLETVVHQLEQEKQRLSKKVESFAVTERQLTLEVERMRLEHGIKRRDRSPSRLDTFLKGIEEERDYYKKELERLQHIIQRRSCSTSYSAREKSSIFRTPEKGDYNSEIHQITRERDELQRMLERFEKYMEDIQSNVKLLTAERDKLSVLYNEAQEELSALRKESTQTTAPHNIVSLMEKEKELALSDLRRIMAEKEALREKLEHIEEVSLFGKSELEKTIEHLTCVNHQLESEKYELKSKVLIMKETIESLENKLKVQAQKFSHVAGDSSHQKTEVNSLRIVNEQLQRSVDDYQHRLSIKRGELESAQAQIKILEEKIDELNLKMTSQDEEAHVMKKTIGVIDKEKDFLQETVDEKTEKIANLQENLANKEKAVAQMKIMISECESSVNQLKETLVNRDREINSLRRQLDAAHKELDEVGRSREIAFKENRRLQDDLATMARENQEISLELEAAVQEKEEMKSRVHKYITEVSRWESLMAAKEKENQDLLDRFQMLHNRAEDWEVKAHQAEGESSSVRLELLSIDTERRHLRERVELLEKEIQEHINAHHAYESQISSMAKAMSRLEEELRHQEDEKATVLNDLSSLRELCIKLDSGKDIMTQQLNSKNLEFERVVVELENVKSESDLLKKQLSNERHTVKNLESLLATNRDKEFHSHLTSHEKDTEIQLLKEKLTLSESKLTSQSRENTMLRAKVAQLQTDYDALKRQISTERYERERAIQEMRRHGLATPPLSSTLRSPSHSPEHRNV
partner: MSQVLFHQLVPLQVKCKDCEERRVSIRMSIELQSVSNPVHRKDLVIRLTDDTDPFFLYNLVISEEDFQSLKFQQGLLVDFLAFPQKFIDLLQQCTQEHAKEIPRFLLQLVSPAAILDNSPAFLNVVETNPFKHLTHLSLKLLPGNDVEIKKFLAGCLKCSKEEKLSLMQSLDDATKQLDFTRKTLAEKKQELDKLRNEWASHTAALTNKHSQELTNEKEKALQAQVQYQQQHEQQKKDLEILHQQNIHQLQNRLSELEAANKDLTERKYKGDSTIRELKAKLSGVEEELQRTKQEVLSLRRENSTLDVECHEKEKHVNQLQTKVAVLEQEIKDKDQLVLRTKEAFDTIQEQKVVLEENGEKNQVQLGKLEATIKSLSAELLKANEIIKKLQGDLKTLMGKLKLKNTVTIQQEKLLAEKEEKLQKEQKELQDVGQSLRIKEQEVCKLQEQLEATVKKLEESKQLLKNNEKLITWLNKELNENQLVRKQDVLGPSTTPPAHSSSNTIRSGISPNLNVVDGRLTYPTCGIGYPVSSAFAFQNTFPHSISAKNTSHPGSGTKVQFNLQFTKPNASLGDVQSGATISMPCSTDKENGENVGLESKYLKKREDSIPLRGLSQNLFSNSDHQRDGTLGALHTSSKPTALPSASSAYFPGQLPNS

The variants in this assay derive from B1. Particulars: with sas6_human SASS6, Q6UVJ0.
On to L588P, for which the “effect of a mutation on the interaction” value is recorded as “disrupting interaction”.
